Substrate: CC(=O)Oc1ccc([N+](=O)[O-])cc1
Assay: colorimetric esterase assay, Lineweaver-Burk plot
Type: biochemical, Sycon raphanus
Conditions: 15 mM Tris/SO4 pH 7.4, 22 °C, 0.25-3 mM substrate, apparent Km

B1: recombinant carbonic anhydrase (CA) from S. raphanus (Sycon raphanus) (protein)
chain: ASWSYNYGAANGPNNWGMLPGFSTCGNGTKQTPIDIVRASATRQTYPTLSFSGATNETDWTIQNNGHSVAALPTADIWLSGGPLGSKVYKVYNIHIHFGNSSFRASEHSFDGGQRTTGEFHVVTYDRTFSNIGEAVASNRGDALSVFGVLFQAQTGQTYDAGITSLINMAANLTYAGDDYVDGLDFSTMVSALDLQQYYSYMGSLTTPGCAEVVSWIVANRLHYVSPAAIDQLMSLKAGMSATPGIDLQGNTRPLQALNGRTVSRSFDLSGS
notes: carbonic anhydrase domain, lacking signal peptide and transmembrane region; expressed in E. coli, Ni-NTA purified
Km: 6.2 ± 1.0 mM
